Experimental data taken from PMC7699638.

Molecular target: MBP-ROCK2 (full-length ROCK2 with N-terminal MBP tag) (human), O75116
Assay: SAXS; MBP-ROCK2 alone; 25 mM HEPES pH 7.4, 25 °C, concentration series 0.3–1.1 mg/ml; molecular mass from the scattering extrapolated to zero angle
Conditions: remark: other sources report otherwise

B1: MBP-ROCK2 (full-length ROCK2 with N-terminal MBP tag), O75116 1-1388 (enzyme)
chain: MSRPPPTGKMPGAPETAPGDGAGASRQRKLEALIRDPRSPINVESLLDGLNSLVLDLDFPALRKNKNIDNFLNRYEKIVKKIRGLQMKAEDYDVVKVIGRGAFGEVQLVRHKASQKVYAMKLLSKFEMIKRSDSAFFWEERDIMAFANSPWVVQLFYAFQDDRYLYMVMEYMPGGDLVNLMSNYDVPEKWAKFYTAEVVLALDAIHSMGLIHRDVKPDNMLLDKHGHLKLADFGTCMKMDETGMVHCDTAVGTPDYISPEVLKSQGGDGFYGRECDWWSVGVFLYEMLVGDTPFYADSLVGTYSKIMDHKNSLCFPEDAEISKHAKNLICAFLTDREVRLGRNGVEEIRQHPFFKNDQWHWDNIRETAAPVVPELSSDIDSSNFDDIEDDKGDVETFPIPKAFVGNQLPFIGFTYYRENLLLSDSPSCRETDSIQSRKNEESQEIQKKLYTLEEHLSNEMQAKEELEQKCKSVNTRLEKTAKELEEEITLRKSVESALRQLEREKALLQHKNAEYQRKADHEADKKRNLENDVNSLKDQLEDLKKRNQNSQISTEKVNQLQRQLDETNALLRTESDTAARLRKTQAESSKQIQQLESNNRDLQDKNCLLETAKLKLEKEFINLQSALESERRDRTHGSEIINDLQGRICGLEEDLKNGKILLAKVELEKRQLQERFTDLEKEKSNMEIDMTYQLKVIQQSLEQEEAEHKATKARLADKNKIYESIEEAKSEAMKEMEKKLLEERTLKQKVENLLLEAEKRCSLLDCDLKQSQQKINELLKQKDVLNEDVRNLTLKIEQETQKRCLTQNDLKMQTQQVNTLKMSEKQLKQENNHLMEMKMNLEKQNAELRKERQDADGQMKELQDQLEAEQYFSTLYKTQVRELKEECEEKTKLGKELQQKKQELQDERDSLAAQLEITLTKADSEQLARSIAEEQYSDLEKEKIMKELEIKEMMARHKQELTEKDATIASLEETNRTLTSDVANLANEKEELNNKLKDVQEQLSRLKDEEISAAAIKAQFEKQLLTERTLKTQAVNKLAEIMNRKEPVKRGNDTDVRRKEKENRKLHMELKSEREKLTQQMIKYQKELNEMQAQIAEESQIRIELQMTLDSKDSDIEQLRSQLQALHIGLDSSSIGSGPGDAEADDGFPESRLEGWLSLPVRNNTKKFGWVKKYVIVSSKKILFYDSEQDKEQSNPYMVLDIDKLFHVRPVTQTDVYRADAKEIPRIFQILYANEGESKKEQEFPVEPVGEKSNYICHKGHEFIPTLYHFPTNCEACMKPLWHMFKPPPALECRRCHIKCHKDHMDKKEEIIAPCKVYYDISTAKNLLLLANSTEEQQKWVSRLVKKIPKKPPAPDPFARSSPRTSMKIQQNQSIRRPSRQLAPNKPS
In the case of B1, the stoichiometry N is reported as 2.
